B1: His-tagged but otherwise wild type Tim50 [yeast] / Tim23 [yeast (endogenous in yeast mitochondria)] (parent complex)
chain 1: QKETKDDKPKSILTDDMLFKAGVDVDEKGQGKNEETSGEGGEDKNEPSSKSEKSRRKRQTSTDIKREKYANWFYIFSLSALTGTAIYMARDWEPQESEELKKDIDNGYTLSLMYKRFKARFNSMFTYFQEPPFPDLLPPPPPPPYQRPLTLVITLEDFLVHSEWSQKHGWRTAKRPGADYFLGYLSQYYEIVLFSSNYMMYSDKIAEKLDPIHAFVSYNLFKEHCVYKDGVHIKDLSKLNRDLSKVIIIDTDPNSYKLQPENAIPMEPWNGEADDKLVRLIPFLEYLATQQTKDVRPILNSFEDKKNLAEEFDHRVKKLKDKFYGDHKSGGNWAMTALGLGNSLGGSTKFPLDLIHEEGQKNYLMFMKMIEEEKEKIRIQQEQMGGQTFTLKDYVEGNLPSPEEQMKIQLEKQKEVDALFEEEKKKKKIAESK
chain 2: MSWLFGDKTPTDDANAAVGGQDTTKPKELSLKQSLGFEPNINNIISGPGGMHVDTARLHPLAGLDKGVEYLDLEEEQLSSLEGSQGLIPSRGWTDDLCYGTGAVYLLGLGIGGFSGMMQGLQNIPPNSPGKLQLNTVLNHITKRGPFLGNNAGILALSYNIINSTIDALRGKHDTAGSIGAGALTGALFKSSKGLKPMGYSSAMVAAACAVWCSVKKRLLEK

The record followed here is publication PMC6375917 (2019).

The variants in this test derive from B1. As to the kind of experiment: pull-down (Ni-NTA agarose beads), immunoblot quantification; T, 10% of total material. B, 100% of bound material.; parent: 100; read off a plot.
For chain 1 D235V, chain 1 R296S, the percent of parent was approximately 12%.
For the variant chain 1 D235V, the percent of parent was approximately 37%.
Consider chain 1 R296S, for which the percent of parent is approximately 115%.
